US20210393745A1, “OLIGOMER EXTENDED INSULIN-FC CONJUGATES AND THEIR MEDICAL USE” (Novo Nordisk A/S, priority 2018, published 2021)
Each block holds one molecule with its values, some of them ahead of it.

Columns and labels:
[1] = target: human insulin receptor isotype B (human) (UniProt P06213); test: SPA competition with [125I-A14Y]-human insulin, membrane-associated human IR-B; relative to human insulin standard
hFcRn ectodomain = hFcRn ectodomain (human, UniProt P55899); test: SPR (Biacore 4000), conjugate immobilised by amine coupling, hFcRn ectodomain as analyte, pH 6.0, 25 C, steady-state fit
[2] = target: human insulin-like growth factor-1 receptor (human, UniProt P08069); test: SPA competition with [125I-Tyr31]-human IGF-1, membrane-associated human IGF-1R; relative to human insulin standard
Procedure: (§1) Membrane-associated human IR and IGF-1R are purified from BHK cells stably transfected with the pZem219B vector containing either the human IR-A, IR-B or IGF-IR insert. BHK cells are harvested and homogenized in ice-cold buffer (25 mM HEPES pH 7.4, 25 mM CaCl₂ and 1 mM MgCl₂, 250 mg/L bacitracin, 0.1 mM Pefablock). The homogenates are layered on a 41% (w/v) sucrose cushion and centrifuged for 75 minutes at 95000 g at 4° C. The plasma membranes are collected, diluted 1:5 with buffer (as above) and centrifuged again for 45 minutes at 40000 g at 4° C. The pellets are resuspended in a minimal volume of buffer and drawn through a needle (size 23) three times before storage at −80° C. until usage. The relative binding affinity for either of the membrane-associated human IR-A, IR-B or IGF-1R is determined by competition binding in a SPA setup. IR assays are performed in duplicate in 96-well OptiPlates (Perkin-Elmer Life Sciences). Membrane protein is incubated with gentle agitation for 150 minutes at 25° C. with 50 pM [¹²⁵IA14Y]-human insulin in a total volume of […] assay buffer (50 mM HEPES, 150 mM NaCl, 5 mM MgSO4, 0.01% Triton X-100, 0.1% (w/v) HSA (Sigma A1887), Complete EDTA-free protease inhibitors), 50 μg of wheat germ agglutinate (WGA)-coated PVT microspheres (GE Healthcare) and increasing concentrations of ligand. Assays are terminated by centrifugation of the plate at 2000 rpm for 2 minutes and bound radioactivity quantified by counting on a TopCount NXT (Perkin-Elmer Life Sciences).
(§2) IGF-1R assays are conducted essentially as for the IR binding assays except that membrane-associated IGF-1R and 50 pM [¹²⁵I-Tyr31]-human IGF-1 were employed.

[3] = target: T1, human insulin receptor isotype A (human, UniProt P06213-2); test: SPA competition with [125I-A14Y]-human insulin, membrane-associated human IR-A; relative to human insulin standard
Procedure: as §1, §2

[4] = target: T1, human insulin receptor isotype A; test: SPA competition with [125I-A14Y]-human insulin, solubilised human IR-A; relative to human insulin (100%)

Rel. aff. (%) [1]: 0.59%
Molecule: (A14E, A21G, A22(GQEP)11, A66G, A67Q, A68E, A69K^, A70P, B16E, B25H, B29R, desB30 human insulin)/(226A, 227G, 228P, 234A, 235K, 297E, 315Q, 384Q, des447 hIgG4-Fc(226-447))3,5-bis[(2-acetyl)amino]benzoyl conjugate

Rel. aff. (%) [1]: 1.26%
Molecule: (A14E, A21G, A22(GQEP)11, A66G, A67Q, A68E, A69K^, A70P, B16H, B25H, B29R, desB30 human insulin)/(226A, 227G, 228P, 234A, 235K, 297E, 315Q, 384Q, des447 hIgG4-Fc(226-447))3,5-bis[(2-acetyl)amino]benzoyl conjugate

Kd (hFcRn ectodomain): 1600 nM
Rel. aff. (%) [2]: 0.1%
Rel. aff. (%) [3]: 1.27%
Insulin receptor affinity [IC50 relative to HI (%)] [4]: 1.6%
B2: (A14E, A21G, A22(GQEP)11, A66G, A67Q, A68E, A69K^, A70P, B16H, B25H, B29R, desB30 human insulin)/(226A, 227G, 228P, 234A, 235K, 297E, 315Q, 384Q, des447 … (other)
chain 1: GIVEQCCTSICSLEQLENYCGGQEPGQEPGQEPGQEPGQEPGQEPGQEPGQEPGQEPGQEPGQEPGQEKP
chain 2: FVNQHLCGSHLVEALHLVCGERGFHYTPR
chain 3: AGPCPAPEAKGGPSVFLFPPKPKDTLMISRTPEVTCVVVDVSQEDPEVQFNWYVDGVEVHNAKTKPREEQFESTYRVVSVLTVLHQDWLQGKEYKCKVSNKGLPSSIEKTISKAKGQPREPQVYTLPPSQEEMTKNQVSLTCLVKGFYPSDIAVEWESQGQPENNYKTTPPVLDSDGSFFLYSRLTVDKSRWQEGNVFSCSVMHEALHNHYTQKSLSLSLG
modifications: epsilon amino group of Lys A69 (A69K) carries the trivalent linker 3,5-bis[(2-acetyl)amino]benzoyl, which bridges to Cys229 of both Fc polypeptides; ; thiol of Cys229 (EU numbering) linked to -C(O)-CH2- of the linker; aglycosylated (made in E. coli)

The remaining lines, values behind:

Molecule: (A14E, A21G, A22(GQEP)12, A70K^, A71P, B25H, B29R, desB30 human insulin)/(226A, 227G, 228P, 234A, 235K, 297E, 315Q, 384Q, des447 hIgG4-Fc(226-447))3,5-bis[(2-acetyl)amino]benzoyl conjugate
Rel. aff. (%) [1]: 3.05%

B1: (A14E, A21G, A22(GQEP)12, A70K^, A71P, B25H, B29R, desB30 human insulin)/(226A, 227G, 228P, 234A, 235K, 297E, 315Q, 384Q, des447 … (other)
chain 1: GIVEQCCTSICSLEQLENYCGGQEPGQEPGQEPGQEPGQEPGQEPGQEPGQEPGQEPGQEPGQEPGQEPKP
chain 2: FVNQHLCGSHLVEALYLVCGERGFHYTPR
chain 3: B2 chain 3
modifications: epsilon amino group of Lys A70 (A70K) carries the trivalent linker 3,5-bis[(2-acetyl)amino]benzoyl, which bridges to Cys229 of both Fc polypeptides; ; thiol of Cys229 (EU numbering) linked to -C(O)-CH2- of the linker; aglycosylated (made in E. coli)
Kd (hFcRn ectodomain): 1500 nM
Rel. aff. (%) [2]: 0.91%
Rel. aff. (%) [3]: 2.97%
Insulin receptor affinity [IC50 relative to HI (%)] [4]: 4.5%

B3: (A14E, A21G, A22(GQEP)11, A66G, A67Q, A68E, A69K^, A70P, B16E, B25H, B29R, desB30 human insulin)/(226A, 227G, 228P, 234A, 235K, 297E, 315Q, 384Q, des447 … (other)
chain 1: B2 chain 1
chain 2: FVNQHLCGSHLVEALELVCGERGFHYTPR
chain 3: B2 chain 3
modifications: epsilon amino group of Lys A69 (A69K) carries the trivalent linker 3,5-bis[(2-acetyl)amino]benzoyl, which bridges to Cys229 of both Fc polypeptides; ; thiol of Cys229 (EU numbering) linked to -C(O)-CH2- of the linker; aglycosylated (made in E. coli)
Kd (hFcRn ectodomain): 1500 nM
Rel. aff. (%) [2]: 0.29%
Rel. aff. (%) [3]: 0.66%
Insulin receptor affinity [IC50 relative to HI (%)] [4]: 0.4%
